*1 amine or outer side, *2 acyl side, *3 side chain or, on linkers, in order; H or OH if unused. Where no end group is shown, it is not given here. Side-chain parts run from the residue outwards. [ ]: non-standard residue; d: D form. The star is where a group is joined. Decanoyl(10-(4-HOOC-PhO)) = O=C(O)c1ccc(OCCCCCCCCCC(=O)*)cc1; d(γGlu) = O=C(O)[C@@H](CCC(=O)[*:2])N[*:1]; C16 diacid = O=C(O)CCCCCCCCCCCCCCC(=O)*; γGlu = O=C(O)[C@H](CCC(=O)[*:2])N[*:1]; 13‑carboxytridecanoyl = C14 diacid; AEEA = NCCOCCOCC(=O)O; Aib = CC(C)(N)C(=O)O
B1: GLP-1 derivative of Example 135: [Aib8,Lys18,Glu22,Val25,Arg26,Lys31,Arg34]-GLP-1-(7-37)-peptide amide (peptide)
peptide: H[Aib]EGTFTSDVSK([AEEA-AEEA-AEEA-AEEA-γGlu-C16 diacid])YLEEQAVREFIAK([AEEA-AEEA-AEEA-AEEA-γGlu-C16 diacid])LVRGRG-NH2
modifications: N-terminus assumed
SMILES: CC[C@H](C)[C@H](NC(=O)[C@H](Cc1ccccc1)NC(=O)[C@H](CCC(=O)O)NC(=O)[C@H](CCCNC(=N)N)NC(=O)[C@@H](NC(=O)[C@H](C)NC(=O)[C@H](CCC(N)=O)NC(=O)[C@H](CCC(=O)O)NC(=O)[C@H](CCC(=O)O)NC(=O)[C@H](CC(C)C)NC(=O)[C@H](Cc1ccc(O)cc1)NC(=O)[C@H](CCCCNC(=O)COCCOCCNC(=O)COCCOCCNC(=O)COCCOCCNC(=O)COCCOCCNC(=O)CC[C@H](NC(=O)CCCCCCCCCCCCCCC(=O)O)C(=O)O)NC(=O)[C@H](CO)NC(=O)[C@@H](NC(=O)[C@H](CC(=O)O)NC(=O)[C@H](CO)NC(=O)[C@@H](NC(=O)[C@H](Cc1ccccc1)NC(=O)[C@@H](NC(=O)CNC(=O)[C@H](CCC(=O)O)NC(=O)C(C)(C)NC(=O)[C@@H](N)Cc1c[nH]cn1)[C@@H](C)O)[C@@H](C)O)C(C)C)C(C)C)C(=O)N[C@@H](C)C(=O)N[C@@H](CCCCNC(=O)COCCOCCNC(=O)COCCOCCNC(=O)COCCOCCNC(=O)COCCOCCNC(=O)CC[C@H](NC(=O)CCCCCCCCCCCCCCC(=O)O)C(=O)O)C(=O)N[C@@H](CC(C)C)C(=O)N[C@H](C(=O)N[C@@H](CCCNC(=N)N)C(=O)NCC(=O)N[C@@H](CCCNC(=N)N)C(=O)NCC(N)=O)C(C)C
B2: GLP-1 derivative of Example 115: [Aib8,Lys18,Arg34]-GLP-1-(7-37)-peptide (peptide)
peptide: HXEGTFTSDVSKYLEGQAAKEFIAWLVRGRG
modifications: Aib8; Lys18 and Lys26 each Nε-acylated with 10-(4-carboxyphenoxy)decanoyl-OEG-OEG-gGlu
B3: GLP-1 derivative of Example 93: [Aib8,Lys18,Arg34]-GLP-1-(7-37)-peptide (peptide)
peptide: B2 peptide
modifications: Aib8; Lys18 and Lys26 each Nε-acylated with 10-(4-carboxyphenoxy)decanoyl-gGlu-OEG-OEG
B4: GLP-1 derivative of Example 108: [Aib8,Lys18,Arg34]-GLP-1-(7-37)-peptide (peptide)
peptide: B2 peptide
modifications: Aib8; Lys18 and Lys26 each Nε-acylated with 11-carboxyundecanoyl-gGlu-gGlu-OEG-OEG

Target: T1, human GLP-1 receptor (human, UniProt P43220 24-463)
T1 construct: whole, on cells; Used as purified membranes of the transfected hamster cells, not whole cells; also called hGLP-1
Assay: SPA, displacement of 125I-GLP-1(7-36)NH2, 0.005% HSA

Row | Binder | IC50 [nM]
1 | H[Aib]EGTFTSDVSK([AEEA-AEEA-d(γGlu)-γGlu-13‑carboxytridecanoyl])YLEEQAAK([AEEA-AEEA-d(γGlu)-γGlu-13‑carboxytridecanoyl])EFIAWLVQGRG [GLP-1 derivative of Example 105: [Aib8,Lys18,Glu22,Gln34]-GLP-1-(7-37)-peptide] | < 1000
2 | H[Aib]EGTFTSDVSK([AEEA-AEEA-γGlu-Decanoyl(10-(4-HOOC-PhO))])YLEGQAAK([AEEA-AEEA-γGlu-Decanoyl(10-(4-HOOC-PhO))])EFIAWLVQGRG [GLP-1 derivative of Example 92: [Aib8,Lys18,Gln34]-GLP-1-(7-37)-peptide] | < 1000
3 | B1 | < 1000
4 | B2 | < 1000
5 | H[Aib]EGTFTSDVSK([AEEA-AEEA-γGlu-γGlu-γGlu-13‑carboxytridecanoyl])YLEEQAVREFIAK([AEEA-AEEA-γGlu-γGlu-γGlu-13‑carboxytridecanoyl])LVRGRG [GLP-1 derivative of Example 102: [Aib8,Lys18,Glu22,Val25,Arg26,Lys31,Arg34]-GLP-1-(7-37)-peptide] | < 1000
6 | H[Aib]EGTFTSDVSK([AEEA-γGlu-AEEA-C16 diacid])YLEEQAVREFIAK([AEEA-γGlu-AEEA-C16 diacid])LVRGRG [GLP-1 derivative of Example 146: [Aib8,Lys18,Glu22,Val25,Arg26,Lys31,Arg34]-GLP-1-(7-37)-peptide] | < 1000
7 | H[Aib]EGTLTSDVSK([AEEA-AEEA-γGlu-Decanoyl(10-(4-HOOC-PhO))])YLEGQAAK([AEEA-AEEA-γGlu-Decanoyl(10-(4-HOOC-PhO))])EFIAWLVQGRG [GLP-1 derivative of Example 139: [Aib8,Leu12,Lys18,Gln34]-GLP-1-(7-37)-peptide] | < 1000
8 | B3 | < 1000
9 | B4 | < 1000
10 | H[Aib]EGTFTSDVSK([AEEA-AEEA-γGlu-13‑carboxytridecanoyl])YLEGQAVREFIAK([AEEA-AEEA-γGlu-13‑carboxytridecanoyl])LVRGRG [GLP-1 derivative of Example 112: [Aib8,Lys18,Val25,Arg26,Lys31,Arg34]-GLP-1-(7-37)-peptide] | < 1000

Target: T1, human GLP-1 receptor
Assay: SPA, 2.0% vs 0.005% HSA

Row | Binder | ratio IC50 high HSA/IC50 low HSA
11 | H[Aib]EGTFTSDVSK([AEEA-AEEA-d(γGlu)-γGlu-13‑carboxytridecanoyl])YLEEQAAK([AEEA-AEEA-d(γGlu)-γGlu-13‑carboxytridecanoyl])EFIAWLVQGRG [GLP-1 derivative of Example 105: [Aib8,Lys18,Glu22,Gln34]-GLP-1-(7-37)-peptide] | > 1
12 | H[Aib]EGTFTSDVSK([AEEA-AEEA-γGlu-Decanoyl(10-(4-HOOC-PhO))])YLEGQAAK([AEEA-AEEA-γGlu-Decanoyl(10-(4-HOOC-PhO))])EFIAWLVQGRG [GLP-1 derivative of Example 92: [Aib8,Lys18,Gln34]-GLP-1-(7-37)-peptide] | > 1
13 | B1 | > 1
14 | B2 | > 1
15 | H[Aib]EGTFTSDVSK([AEEA-AEEA-γGlu-γGlu-γGlu-13‑carboxytridecanoyl])YLEEQAVREFIAK([AEEA-AEEA-γGlu-γGlu-γGlu-13‑carboxytridecanoyl])LVRGRG [GLP-1 derivative of Example 102: [Aib8,Lys18,Glu22,Val25,Arg26,Lys31,Arg34]-GLP-1-(7-37)-peptide] | > 1
16 | H[Aib]EGTFTSDVSK([AEEA-γGlu-AEEA-C16 diacid])YLEEQAVREFIAK([AEEA-γGlu-AEEA-C16 diacid])LVRGRG [GLP-1 derivative of Example 146: [Aib8,Lys18,Glu22,Val25,Arg26,Lys31,Arg34]-GLP-1-(7-37)-peptide] | > 1
17 | H[Aib]EGTLTSDVSK([AEEA-AEEA-γGlu-Decanoyl(10-(4-HOOC-PhO))])YLEGQAAK([AEEA-AEEA-γGlu-Decanoyl(10-(4-HOOC-PhO))])EFIAWLVQGRG [GLP-1 derivative of Example 139: [Aib8,Leu12,Lys18,Gln34]-GLP-1-(7-37)-peptide] | > 1
18 | B3 | > 1
19 | B4 | > 1
20 | H[Aib]EGTFTSDVSK([AEEA-AEEA-γGlu-13‑carboxytridecanoyl])YLEGQAVREFIAK([AEEA-AEEA-γGlu-13‑carboxytridecanoyl])LVRGRG [GLP-1 derivative of Example 112: [Aib8,Lys18,Val25,Arg26,Lys31,Arg34]-GLP-1-(7-37)-peptide] | > 1
